Measured values: US20110250670A1, “LIGHT ENERGY-INDUCED STABILITY OF BIOMATERIALS” (University of Calcutta, priority 2010, published 2011)

Tests used:
Format in all cases: physicochemical
[1] = Dynamic light scattering of hemoglobin; conditions: heated at 60° C. for 20 min without red laser light
Experimental: FIG. 4 represents the dynamic light scattering pattern of protein hemoglobin in the presence and absence of red laser light at 60° C. The hydrodynamic diameter of hemoglobin at 25° C. is 5.6 nm. When this protein solution was heated at 60° C. without red laser light for 20 min, the hydrodynamic diameter increases to 4801.0 nm. However, in the presence of red laser light the diameter increases to only 255.0 nm.

[2] = Thermal aggregation of hemoglobin (absorption/scattering at 360 nm); conditions: 0.1 mg/ml, 60° C., 20 min, He-Ne laser 632.8 nm, 0.63 watts/cm^2
Text: (§1) In this Example, the effects of light energy on the aggregation of a labile biomolecule in aqueous solution were examined. The device included a heating element and a laser, as depicted in FIG. 2. The laser operated at 632.8 nm, in the red portion of the spectrum, with a power density of 0.63 watts/cm^2. The 180 degree scattering at 360 nm (in terms of OD at 360 nm) was taken to measure the extent of aggregation because it is well-known that this scattering is a measure of the propensity of a protein to form aggregate. Aggregation of proteins of the reference samples was taken as 100% and the aggregation of laser-treated proteins in the test samples was calculated relative to the 100% aggregation of the reference samples.
Thermal aggregation of hemoglobin. Hemoglobin was purchased from Sigma-Aldrich (St. Louis, Mo.) and a 0.5 mg/ml stock solution was prepared by mixing with 100 mM phosphate buffer solution of pH 7.2. The aggregation of a 0.1 mg/ml hemoglobin solution was observed by measuring the absorption of radiation of 360 nm wavelength with a time duration of 20 min in a Perkin Elmer spectrophotometer at 60° C. Test samples were irradiated with He—Ne laser having power density is 0.63 watts/cm^2 and operating at a wavelength 632.8 nm. A control sample was subjected to identical conditions expect laser irradiation was not performed. […]

[3] = Dithiothreitol induced aggregation of insulin (absorption at 360 nm); conditions: 0.1 mg/ml, DTT 20 mM, 40° C., He-Ne laser 632.8 nm, 0.63 watts/cm^2
Text: as §1
Dithiothreitol induced aggregation of insulin. Insulin was purchased from ICN and a stock solution of insulin (0.5 mg/ml) was prepared by mixing with 100 mM phosphate buffer of pH 7.2. Disulphide linkages of insulin (0.1 mg/ml) were reduced by dithiothreitol (DTT, 20 mM), which leads aggregation of insulin at 40° C. This aggregation of protein was measured by absorption at 360 nm after heat treatment at 40° C. in a Perkin Elmer spectrophotometer. Aggregation of insulin was measured in the presence and in the absence of laser light. Test samples were irradiated with a He—Ne laser having power density is 0.63 watts/cm^2 and operating at a wavelength 632.8 nm. […]

[4] = Thermal aggregation of citrate synthase (OD at 360 nm); conditions: for change in aggregation upon laser exposure: FIG. 5
Text: as §1
Thermal Aggregation of Citrate Synthase. Citrate synthase was purchased from Sigma-Aldrich and a 0.5 mg/ml stock solution was prepared by mixing with 100 mM phosphate buffer solution of pH 7.2. Citrate synthase was readily converted to its aggregated state from a native state at 45° C. The aggregation profile of the protein (0.1 mg/ml) was measured by measuring optical density (OD) at 360 nm in a Perkin Elmer spectrophotometer in 100 mM phosphate buffer of pH 7.2. Test samples were irradiated with a He—Ne laser having power density is 0.63 Watt/cm^2 and operating at a wavelength 632.8 nm. A control sample was subjected to identical conditions expect that laser irradiation was not performed. The results are shown in FIG. 3 and indicate that irradiation with laser light reduced the formation of protein aggregates by about 40% compared to an non-irradiated control sample.
A comparative study showing the effect of the power of the red laser on the aggregation of citrate synthase was conducted. Thermal aggregation of citrate synthase was determined by measuring absorption of radiation of 360 nm wavelength at 45° C. Aggregation of control samples (in absence of laser treatment) was considered as 100% aggregation while aggregation of the treated protein of the test samples was calculated relative to the 100% aggregation of the control samples. […] Thus, increasing the energy input to the test samples beyond that needed to increase the activation energy for unfolding the protein appears to generate heat energy that increases aggregation. As such, suitable methods for preventing protein aggregation use a low-power red laser.

hemoglobin
hydrodynamic diameter [1]: 4801.0 nm
reduction of formation of hemoglobin aggregates compared to non-irradiated control [2]: about 25%

insulin
reduction of formation of insulin aggregates compared to non-irradiated control [3]: about 10%

B1: citrate synthase (protein, UniProt P00889 28-464, looked up)
Citrate synthase, …: ASSTNLKDILADLIPKEQARIKTFRQQHGNTVVGQITVDMMYGGMRGMKGLVYETSVLDPDEGIRFRGYSIPECQKMLPKAKGGEEPLPEGLFWLLVTGQIPTEEQVSWLSKEWAKRAALPSHVVTMLDNFPTNLHPMSQLSAAITALNSESNFARAYAEGIHRTKYWELIYEDCMDLIAKLPCVAAKIYRNLYREGSSIGAIDSKLDWSHNFTNMLGYTDAQFTELMRLYLTIHSDHEGGNVSAHTSHLVGSALSDPYLSFAAAMNGLAGPLHGLANQEVLVWLTQLQKEVGKDVSDEKLRDYIWNTLNSGRVVPGYGHAVLRKTDPRYTCQREFALKHLPHDPMFKLVAQLYKIVPNVLLEQGKAKNPWPNVDAHSGVLLQYYGMTEMNYYTVLFGVSRALGVLAQLIWSRALGFPLERPKSMSTDGLIKLVDSK
notes: a beta sheet-rich enzyme which readily aggregates by thermal treatment at 45° C; purchased from Sigma-Aldrich
reduction of formation of protein aggregates compared to non-irradiated control ([4]; 0.1 mg/ml, 45° C., He-Ne laser 632.8 nm, 0.63 Watt/cm^2): about 40%
aggregation relative to control samples (100%) ([4]; 45° C., red laser 15 mW, 1.9 watts/cm^2): approximately 145%
aggregation relative to control samples (100%) ([4]; 45° C., red laser 632.8 nm, 5 mW, 0.63 watts/cm^2): 60%
change in aggregation upon laser exposure ([4]; high power (15 mW) red laser): increase in aggregation
change in aggregation upon laser exposure ([4]; low power (5 mW) red laser): decrease in the aggregation
